Assay results: patent US20050266465A1 (MAXYGEN, published 2005)

B1: 25epi19 (ligand)
chain: CDLPQTHSLSNRRTLMLMAQMRRISPFSCLKDRHDFGFPEEEFDGHQAQKVQAIFLLYELIQQTFNLFSTKDSSAAWDETLLEKFYIELFQQMNNLEACVIQEVGVEEIALMNVDSILAVRKYFRRITLYLTEKKYSPCAWEVVRAEIMRSFSFSTNLQESLRSKE
B2: B9x14EC4 (ligand)
chain: CDLPQTHSLGHRRTMMLLAQMRRISLFSCLKDRHDFRFPQEEFDGNHFQKVQAIFLFYEMMQQTFNLFSTKDSSAAWDETLLEKFYIELFQQMNDLEACVMQEVGVEETPLMNVDSILAVRKYFQRITLYLTEKKYSPCAWEVVRAEIMRSFSFSTNLQESLRSKE
B3: 14epi22 (ligand)
chain: CDLPQTHSLGHRRTMMLLAQMRRISLFSCLKDRHDFRFPQEEFDGNHFQKVQAISLFYEMMQQTFNLFSTKDSSAAWDETLLEKFYIELFQQMNDLEACVMQEVGVEETPLMNVDSILAVRKYFQRITLYLTEKKYSPCAWEVVRAEIMRSFSFSTNLQESLRSKE
B4: 14epi33 (ligand)
chain: CDLPQTHSLGHRRTMMLLAQMRRISLFSCLKDRHDFRFPQEEFDGNHFQKVPAISLFYEMMQQTFNLFSTKDSSAAWDETLLEKFYIELFQQMNDLEACVMQEVGVEETPLMKEDSILAVRKYFQRITLYLTEKKYSPCAWEVVRAEIMRSFSFSTNLQESLRSKE
B5: 14epi20 (ligand)
chain: CDLPQTHSLGHRRTMMLLAQMRRISLFSCLKDRHDFRFPQEEFDGNHAQKVQAISLFYEMMQQTFNLFSTKDSSAAWDETLLEKFYIELFQQMNDLEACVMQEVGVEETPLMNVDSILAVRKYFQRITLYLTEKKYSPCAWEVVRAEIMRSFSFSTNLQESLRSKE
B6: 14epi26 (ligand)
chain: CDLPQTHSLGHRRTMMLLAQMRRISLFSCLKDRHDFRFPQEEFDGNHLQKVQAISLFYEMMQQTFNLFSTKDSSAAWDETLLEKFYIELFQQMNDLEACVMQEVGVEETPLMKEDSILAVRKYFQRITLYLTEKKYSPCAWEVVRAEIMRSFSFSTNLQESLRSKE
B7: 14epi25 (ligand)
chain: CDLPQTHSLGHRRTMMLLAQMRRISLFSCLKDRHDFRFPQEEFDGNHLQKVQAISLFYEMMQQTFNLFSTKDSSAAWDETLLEKFYIELFQQMNDLEACVMQEVGVEETPAMNVDSILAVRKYFQRITLYLTEKKYSPCAWEVVRAEIMRSFSFSTNLQESLRSKE
B8: 14epi19 (ligand)
chain: CDLPQTHSLGHRRTMMLLAQMRRISLFSCLKDRHDFRFPQEEFDGNHAQKVQAIALFYEMMQQTFNLFSTKDSSAAWDETLLEKFYIELFQQMNDLEACVMQEVGVEETPLMNVDSILAVRKYFQRITLYLTEKKYSPCAWEVVRAEIMRSFSFSTNLQESLRSKE
B9: 14epi17 (ligand)
chain: CDLPQTHSLGHRRTMMLLAQMRRISLFSCLKDRHDFRFPQEEFDGNHLQKVQAISLFYEMMQQTFNLFSTKDSSAAWDETLLEKFYIELFQQMNDLEACVMQEVGVEETPLMNVDSILAVRKYFQRITLYLTEKKYSPCAWEVVRAEIMRSFSFSTNLQESLRSKE
B10: 14epi16 (ligand)
chain: CDLPQTHSLGHRRTMMLLAQMRRISLFSCLKDRHDFRFPQEEFDGNHLQKVQAIALFYEMMQQTFNLFSTKDSSAAWDETLLEKFYIELFQQMNDLEACVMQEVGVEETPLMNVDSILAVRKYFQRITLYLTEKKYSPCAWEVVRAEIMRSFSFSTNLQESLRSKE
B11: 14epi34 (ligand)
chain: CDLPQTHSLGHRRTMMLLAQMRRISLFSCLKDRHDFRFPQEEFDGNHFQKVPAISLFYEMMQQTFNLFSTKDSSAAWDETLLEKFYIELFQQMNDLEACVMQEVGVEETPLMNEDSILAVRKYFQRITLYLTEKKYSPCAWEVVRAEIMRSFSFSTNLQESLRSKE
B12: 14epi29 (ligand)
chain: CDLPQTHSLGHRRTMMLLAQMRRISLFSCLKDRHDFRFPQEEFDGNHAQKVQAISLFYEMMQQTANLFSTKDSSAAWDETLLEKFYIELFQQMNDLEACVMQEVGVEETPLMNVDSILAVRKYFQRITLYLTEKKYSPCAWEVVRAEIMRSFSFSTNLQESLRSKE
B13: 14epi32 (ligand)
chain: CDLPQTHSLGHRRTMMLLAQMRRISLFSCLKDRHDFRFPQEEFDGNHLQKVPAISLFYEMMQQTFNLFSTKDSSAAWDETLLEKFYIELFQQMNDLEACVMQEVGVEETPLMKEDSILAVRKYFQRITLYLTEKKYSPCAWEVVRAEIMRSFSFSTNLQESLRSKE
B14: 14epi18 (ligand)
chain: CDLPQTHSLGHRRTMMLLAQMRRISLFSCLKDRHDFRFPQEEFDGNHAQKVQAIFLFYEMMQQTFNLFSTKDSSAAWDETLLEKFYIELFQQMNDLEACVMQEVGVEETPLMNVDSILAVRKYFQRITLYLTEKKYSPCAWEVVRAEIMRSFSFSTNLQESLRSKE
B15: 14epi15 (ligand)
chain: CDLPQTHSLGHRRTMMLLAQMRRISLFSCLKDRHDFRFPQEEFDGNHLQKVQAIFLFYEMMQQTFNLFSTKDSSAAWDETLLEKFYIELFQQMNDLEACVMQEVGVEETPLMNVDSILAVRKYFQRITLYLTEKKYSPCAWEVVRAEIMRSFSFSTNLQESLRSKE
B16: 14epi31 (ligand)
chain: CDLPQTHSLGHRRTMMLLAQMRRISLFSCLKDRHDFRFPQEEFDGNHAQKVQAIALFYEMMQQTFNLFSTKDSSAAWDETLLEKFYIELFQQMNDLEACVMQEVGVEETPLMKEDSILAVRKYFQRITLYLTEKKYSPCAWEVVRAEIMRSFSFSTNLQESLRSKE
B17: 14epi21 (ligand)
chain: CDLPQTHSLGHRRTMMLLAQMRRISLFSCLKDRHDFRFPQEEFDGNHFQKVQAIALFYEMMQQTFNLFSTKDSSAAWDETLLEKFYIELFQQMNDLEACVMQEVGVEETPLMNVDSILAVRKYFQRITLYLTEKKYSPCAWEVVRAEIMRSFSFSTNLQESLRSKE
B18: MonoPEGylated 25epi19 (ligand)
chain: MCDLPQTHSLSNRRTLMLMAQMRRISPFSCLKDRHDFGFPEEEFDGHQAQKVQAIFLLYELIQQTFNLFSTKDSSAAWDETLLEKFYIELFQQMNNLEACVIQEVGVEEIALMNVDSILAVRKYFRRITLYLTEKKYSPCAWEVVRAEIMRSFSFSTNLQESLRSKE
modifications: single 40 kDa branched PEG (mPEG2-NHS) on a lysine; positional isomers predominantly monoPEGylated at Lys31, Lys122 and Lys135
B19: MonoPEGylated 14epi18 (ligand)
chain: MCDLPQTHSLGHRRTMMLLAQMRRISLFSCLKDRHDFRFPQEEFDGNHAQKVQAIFLFYEMMQQTFNLFSTKDSSAAWDETLLEKFYIELFQQMNDLEACVMQEVGVEETPLMNVDSILAVRKYFQRITLYLTEKKYSPCAWEVVRAEIMRSFSFSTNLQESLRSKE
modifications: single 40 kDa branched PEG (mPEG2-NHS) on a lysine; positional isomers predominantly monoPEGylated at Lys122 and Lys135

The binders below were run against T1, interferon-alpha receptor (type I interferon receptor comprising receptor subunits IFNAR-2 and IFNAR-1) (human, UniProt P17181 28-557; P48551 27-515) (assay: cell-based or functional assay).
T1 sequence (looked up) 1: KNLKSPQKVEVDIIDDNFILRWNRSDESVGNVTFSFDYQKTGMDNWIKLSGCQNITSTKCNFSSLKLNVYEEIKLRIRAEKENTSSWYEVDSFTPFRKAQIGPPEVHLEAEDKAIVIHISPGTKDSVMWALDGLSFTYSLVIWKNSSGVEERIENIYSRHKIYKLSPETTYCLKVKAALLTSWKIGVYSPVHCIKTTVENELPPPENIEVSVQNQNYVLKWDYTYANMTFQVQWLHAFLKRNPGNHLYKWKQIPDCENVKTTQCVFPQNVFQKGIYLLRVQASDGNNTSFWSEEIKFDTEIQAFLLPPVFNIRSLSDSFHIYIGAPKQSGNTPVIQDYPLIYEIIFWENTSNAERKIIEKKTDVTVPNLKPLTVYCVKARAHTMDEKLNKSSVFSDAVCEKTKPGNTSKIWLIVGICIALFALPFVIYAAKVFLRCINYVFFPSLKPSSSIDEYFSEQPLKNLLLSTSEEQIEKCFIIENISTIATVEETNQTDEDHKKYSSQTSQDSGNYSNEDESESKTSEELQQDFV
T1 sequence (looked up) 2: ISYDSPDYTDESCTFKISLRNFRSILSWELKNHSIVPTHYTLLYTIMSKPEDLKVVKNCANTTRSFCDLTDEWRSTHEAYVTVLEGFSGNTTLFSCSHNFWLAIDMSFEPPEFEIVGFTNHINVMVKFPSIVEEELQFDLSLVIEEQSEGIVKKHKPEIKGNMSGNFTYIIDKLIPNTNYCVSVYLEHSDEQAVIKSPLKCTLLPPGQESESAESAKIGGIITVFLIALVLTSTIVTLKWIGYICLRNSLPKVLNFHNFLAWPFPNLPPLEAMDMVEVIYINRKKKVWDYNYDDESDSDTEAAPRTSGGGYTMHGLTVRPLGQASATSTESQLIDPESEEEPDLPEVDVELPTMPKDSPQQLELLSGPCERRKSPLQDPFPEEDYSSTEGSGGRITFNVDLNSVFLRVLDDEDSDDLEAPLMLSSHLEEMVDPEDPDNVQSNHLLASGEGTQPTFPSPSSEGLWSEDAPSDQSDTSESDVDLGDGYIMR
In the case of B1, the “HeLa/EMCV Antiviral activity relative to huIFN-alpha 2b” value is reported as greater than 8 fold and the “HuH7/EMCV Antiviral activity relative to huIFN-alpha 2b” value is reported as greater than 8 fold.
With B2 the “HeLa/EMCV Antiviral activity relative to huIFN-alpha 2b” value was greater than 8 fold and the “HuH7/EMCV Antiviral activity relative to huIFN-alpha 2b” value was greater than 8 fold.
In the case of B3, the “HeLa/EMCV Antiviral activity relative to huIFN-alpha 2b” value is reported as greater than 8 fold.
For B4, the “HeLa/EMCV Antiviral activity relative to huIFN-alpha 2b” value was greater than 8 fold and the “HuH7/EMCV Antiviral activity relative to huIFN-alpha 2b” value was greater than 8 fold.
B5 was tested, and the “HeLa/EMCV Antiviral activity relative to huIFN-alpha 2b” value was greater than 8 fold and the “HuH7/EMCV Antiviral activity relative to huIFN-alpha 2b” value was greater than 8 fold.
B6 was tested, and the “HeLa/EMCV Antiviral activity relative to huIFN-alpha 2b” value was greater than 8 fold.
In the case of B7, the “HeLa/EMCV Antiviral activity relative to huIFN-alpha 2b” value is reported as greater than 8 fold and the “HuH7/EMCV Antiviral activity relative to huIFN-alpha 2b” value is reported as greater than 8 fold.
B8 was tested, and the “HeLa/EMCV Antiviral activity relative to huIFN-alpha 2b” value was greater than 8 fold and the “HuH7/EMCV Antiviral activity relative to huIFN-alpha 2b” value was greater than 8 fold.
For B9, the “HeLa/EMCV Antiviral activity relative to huIFN-alpha 2b” value was greater than 8 fold and the “HuH7/EMCV Antiviral activity relative to huIFN-alpha 2b” value was greater than 8 fold.
With B10 the “HeLa/EMCV Antiviral activity relative to huIFN-alpha 2b” value was greater than 8 fold and the “HuH7/EMCV Antiviral activity relative to huIFN-alpha 2b” value was greater than 8 fold.
In the case of B11, the “HeLa/EMCV Antiviral activity relative to huIFN-alpha 2b” value is reported as greater than 8 fold and the “HuH7/EMCV Antiviral activity relative to huIFN-alpha 2b” value is reported as greater than 8 fold.
B12 was tested, and the “HeLa/EMCV Antiviral activity relative to huIFN-alpha 2b” value was greater than 8 fold.
In the case of B13, the “HeLa/EMCV Antiviral activity relative to huIFN-alpha 2b” value is reported as greater than 8 fold and the “HuH7/EMCV Antiviral activity relative to huIFN-alpha 2b” value is reported as greater than 8 fold.
B14 was tested, and the “HeLa/EMCV Antiviral activity relative to huIFN-alpha 2b” value was greater than 8 fold and the “HuH7/EMCV Antiviral activity relative to huIFN-alpha 2b” value was greater than 8 fold.
For B15, the “HeLa/EMCV Antiviral activity relative to huIFN-alpha 2b” value was greater than 8 fold and the “HuH7/EMCV Antiviral activity relative to huIFN-alpha 2b” value was greater than 8 fold.
For B16, the “HeLa/EMCV Antiviral activity relative to huIFN-alpha 2b” value was greater than 8 fold.
With B17 the “HeLa/EMCV Antiviral activity relative to huIFN-alpha 2b” value was greater than 8 fold and the “HuH7/EMCV Antiviral activity relative to huIFN-alpha 2b” value was greater than 8 fold.

Target: T1, interferon-alpha receptor (type I …)
Assay: cell-based or functional assay
Remark: another data set of the same source
With B1 the “TH1 activity (IFN-gamma in supernatants of naive T cells), Fold over IFN-alpha 2a” value was greater than 30 fold.
With B14 the “TH1 activity (IFN-gamma in supernatants of naive T cells), Fold over IFN-alpha 2a” value was greater than 30 fold.

Target: T1, interferon-alpha receptor (type I …)
Assay: cell-based or functional assay
Remark: another data set of the same source
B18 was tested, and the “HeLa-EMCV antiviral assay, antiviral activity relative to monoPEGylated IFN-alpha 2a” value was greater than 10 fold.
In the case of B19, the “HeLa-EMCV antiviral assay, antiviral activity relative to monoPEGylated IFN-alpha 2a” value is reported as greater than 10 fold.
